From publication PMC6007307
Several values for one entry are separate records, joined by “and”; a condition that tells them apart may be missing. Equal entries are not always repeated.

Experiments:
[1] = target: IFIT2 (recombinant) (human) (UniProt P09913); experiment: SEC-MALS; equal amounts of IFIT2 and IFIT3 mixed and incubated at 4°C for 1 h, SEC buffer
[2] = target: IFIT2 (recombinant) (human) (UniProt P09913); experiment: SEC-MALS; each protein alone at varying concentrations; Superdex 200 Increase 10/300, room temperature, 20 mM Tris pH 7.5, 150 mM KCl, 1 mM DTT
IFIT1 (human) = experiment: primer extension inhibition (toeprinting); conditions: 5' cap0 (m7GpppN, no 2'-O-methylation; ScriptCap); Toeprinting at equilibrium, [IFIT1] >= 10x [mRNA]; binding buffer, salt, pH and temperature not in the material (complexes assembled in 20 mM Tris pH 7.5 …)
[3] = system: IFIT1;IFIT2;IFIT3 (human;human;human); experiment: primer extension inhibition (toeprinting); conditions: 5' cap0 (m7GpppN, no 2'-O-methylation; ScriptCap); Toeprinting at equilibrium, [IFIT1] >= 10x [mRNA]; binding buffer, salt, pH and temperature not in the material (complexes assembled in 20 mM Tris pH 7.5 …)
[4] = system: IFIT1;IFIT3 (human;human); experiment: primer extension inhibition (toeprinting); conditions: 5' cap0 (m7GpppN, no 2'-O-methylation; ScriptCap); Toeprinting at equilibrium, [IFIT1] >= 10x [mRNA]; binding buffer, salt, pH and temperature not in the material (complexes assembled in 20 mM Tris pH 7.5 …)

IFIT2 (recombinant), sequence (P09913 whole entry): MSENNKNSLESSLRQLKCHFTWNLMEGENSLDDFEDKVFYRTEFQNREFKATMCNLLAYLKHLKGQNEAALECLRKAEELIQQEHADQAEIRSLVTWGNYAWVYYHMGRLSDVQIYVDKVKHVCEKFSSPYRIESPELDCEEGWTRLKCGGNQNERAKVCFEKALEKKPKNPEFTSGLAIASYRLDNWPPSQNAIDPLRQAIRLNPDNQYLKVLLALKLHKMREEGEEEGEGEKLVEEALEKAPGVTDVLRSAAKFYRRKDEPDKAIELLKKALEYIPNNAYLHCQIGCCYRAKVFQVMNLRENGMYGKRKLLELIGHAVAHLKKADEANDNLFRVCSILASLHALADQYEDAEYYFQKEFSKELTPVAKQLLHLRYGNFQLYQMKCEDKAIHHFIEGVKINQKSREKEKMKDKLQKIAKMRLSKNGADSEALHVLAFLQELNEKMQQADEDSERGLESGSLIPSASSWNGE

stoichiometry N [1]	stoichiometry N [2]	Substance	K half (IFIT1 (human)) [nM]	K half [3] [nM]	K half [4] [nM]
2	2 and 4	IFIT2 (recombinant) (from UniProt P09913 1-472) (natural protein)	–	–	–
–	–	cap0-β-globin Fluc mRNA	40	19	19
